Results: patent US20260209316A1 (US Dept. of Health and Human Services, published 2026)

B1: antibody 233S (antibody, V domains shown)
VH: EVQLVESGGGLGQPGGSLRLSCAASGFKFKIFGMNWVRQAPGKGLEWVSYISSRSSIIYYADSVKGRFTISRDDATNSLFLQMNSLRDEDTAMYYCVRDYNLIDFVWGSLFDYWGQGILVTVSS
VL: AIRMTQSPSSLSASTGDSVTITCRASQNIASYLAWYQQIPGKAPKLLIYVASTLQSGVPSRFSGSGSGTDFTLTISSLQSEDFATYYCQQYYRYPPTFGQGTKVEIK
B2: antibody 241S (antibody, V domains shown)
VH: QVQLVQSGSELKKPGASVKVSCKASGYTFTSYTVNWVRQAPGQGLEWMGWINTNTGNPTYAQGFTGRFVFSSDTSVSTAYLQISDLKAEDTAMYYCARHVAYDLWSGHTVTFDHWGQGTLVTVSS
VL: QSALTQPPSASGSPGQSVTISCTGTSSDVGAYNYVSWYQQHPGKAPKLIIYEVTKRPSGVPDRFSGSKSGNTASLTVSGLQAEDEADYYCSSKAGGKTYVFGTGTKVTVL
B3: antibody 503S (antibody, V domains shown)
VH: QVQLVQSGAEVKKPGASVRVSCKASGYTFTSYYMHWVRQAPGQGLEWMGQINPSGGTTRYERKFQGRITVTRDTSTSTVYLELSSLRSEDTASYFCACLRDKVTYYDLWSGVDSVWGQGTLVTVSS
VL: DIQMTQSPSSLSASVGDRVTITCRASQDISTWLAWYQQKPEKAPKSLIYAASTLETGVPSRFSGSGSGTDFTLTISSLQPEDFATYYCEQYNGFPRTFGQGTKLDIK
B4: antibody 354S (antibody, V domains shown)
VH: QVQLVQSGAEVKKPGASVKVSCKASGYSFASYYIHWVRQAPGQGLEWMGIINPSGGTTSYAQKFQGRVTMTRDTSTSTVYMELSSLGSEDTAVYYCARIVDRVTIYLNGVDNYWGQGTLVTVSS
VL: EIVMTQSPATLSVSPGERVTLSCRASQSVSSNLAWFQQTPGQAPRLLIYGASTRASGVPARFSGSGSGTEFTLTISSLQSEDFAVYYCLQYNNWPPGWKYGFGQGTKLEIK
B5: antibody 294S (antibody, V domains shown)
VH: QVQLQESGPGLVKPSQTLSLTCTVSGGSISSGGYHWSWIRQHPGKGLEWIGNIYYNGRTYYNPSLKSRVTISVDTSENEFSLKLSSVTAADTAVYYCARDRRRPRIGHDYGMDVWGQGTKVIVSS
VL: DIQMTQSPSSLSASVGDRVTISCRASQSISNFLNWYQQKPGQAPKLLIYTASNLQSGVPSRFSGSGSGTDFTLTISSLQPEDFATYYCQQIYNTGMYSFGQGTKLEIKR
B6: antibody 523S (antibody, V domains shown)
VH: QVQLVQSGAELKKPGASVKVSCKASGYTFSDHYVHWVRQAPGQGLEWMGRINPNSGGTNYAQRFLGRVTMTRDASISTAYLDLSSLRSDDTAVYYCARSSSSWSGHYYYYMDVWGKGTTVTVSS
VL: QSVLTQPPSVSAAPGQRVTISCSGSTSNIASNFVSWYQQLPGTAPKLLIYDNHKRPSGIPDRFSGSKSGTSATLGITGLQTGDEADYYCGTWDSSLSAGVFGGGTKVTVLG
B7: antibody 541S (antibody, V domains shown)
VH: QVQLVQSGAEVKKPGASVKVSCKASGYTFTNYAITWVRQAPGQGLEWMGWISAFNGQINYAQKFQGRVAMTTDTSTSTAYMELRSLRSDDTAVYYCARAPPMWFSGAKFDYWGQGTLVTVSS
VL: QSVLTQPPSVSGTPGQRVTISCSGSSSNIGSNTVNWYQQLPGTAPKLLIYSNDQRPSGVPDRFSGSKSGTSASLAISGLRSEDEADYYCAAWDETLRRVFGGGTRLTVL
B8: antibody 573S (antibody, V domains shown)
VH: EVQLVESGGGLVKPGGSLRLSCAASGFTFSSYTMNWVRQAPGKGLEWVSCIRSSSSDKYYADSVKGRFTISRDNTKNSLYLQMNSLRADDTAVYYCARDLGGANNRYYFDYGMDVWGQGTTVTVSS
VL: EIVMTQSPATLSVSPGGRATLSCRASQSVYTNLAWYQQKPGQAPRLLIYDASTRATGIPARFSGSGSGTEFTLTISSLQCEDFAVYYCQHYNNWPLYTFGQGTKLEIK
B9: antibody 203S (antibody, V domains shown)
VH: QVQLVQSGAEVKKPGSSVKVSCKASGGTFSSYAISWVRQAPGQGLEWLGRILPALGLANYAQKYQDRVKITADKSTSTAYMELSRLGSEDTAVYYCARDRWVGAARRGQYFDYWGQGTQVTVSS
VL: DIQMTQSPATLSASVGDRVTITCRASQSIGTWLAWYQQKPGKAPKLLIYDASSLESGVPPRFSGSGSETEFTLTISSLQPDDFATYYCHQYKSYSYTFGQGTKLEIK
B10: antibody 315S (antibody, V domains shown)
VH: EVQLVESGGGVVQPGRSLRLSCAASGFTFKTYTMHWVRQAPGKGLEWVAVITDDGVNKKYADSVKGRFTISRDNSKNTLYLQMNSLRLEDTAVYYCARSVVVLAAYPLDYWGQGTMVTVSS
VL: DIQMTQSPSSLSASVGDRVTITCRASQTISTYLHWYQQRPGKAPKLLIYAASSLQSGVPSRVSGSGSGTDFTLTITSLQPEDFATYYCLQTYSLPLTFGGGTNVEIK
B11: antibody 528S (antibody, V domains shown)
VH: EVQLAESGGGVVQPGRSLRLSCAASGFTFNSYGMHWVRQAPGKGLEWVAVIWDDGSKKYYADSVKGRFTISRDNSKNTLFLQMNSLRAEDTAVYYCARETIMFTFGEVIVSSRDNYYMDVWGKGTTVTVSS
VL: EIVLTQSPATLSLSPGERATLSCRASQSVSNYLAWYQQKPGQAPRLLIYDASTRAIGIPARFSGVGSGTDFTLTISSLEPEDFAVYYCQQRSNWPPLTFGGGTKVEIK
B12: antibody 338S (antibody, V domains shown)
VH: EVQLVESGGGVVQPGRSLRLSCAASGFTFSQYGMHWVRQAPGKGLECVAVIWFDGSKKYYGDSVKGRFTISRDNSKNTLYLQMNSLRAEDTAVYFCARESLYYYDSGGHYYERGRIDYWGQGTLVTVSS
VL: DIQMTQSPSSLSASVGDRVTITCRASQDISNFLAWFQQKPGKAPKSLIYAASSLLSGVPSKFSGSGSGTDFTLTISSLQPEDFATYYCQQYNSYPPTFGQGTKLEIK
B13: antibody 377S (antibody, V domains shown)
VH: QVQLVQSGAEVKKPGSSVKVSCKASGGTFSNYAINWVRQAPGQGLEWMGRTIPFLGLTNYAENFQARVTITADKSTGTSYMQLSSLRSEDTAVYFCAKAATSGWSPFDNWGQGTLVTVSS
VL: EIVLTQSPGTLSLSPGERATLSCRASQSISSSYFGWYQQKPGQAPRLLIYGASRRAAGIPDRFSCSGSGTDFTLTISRLEPEDFGVYYCQQYGSSPTFGQGTKVEIK

target: T1, mucin domain-deleted Sudan GP (GPdMuc) (Sudan virus (SUDV), UniProt Q7T9D9 33-632); assay: BLI competition on Sudan GPdMuc (lower table); competitor 16F6
T1 construct: also called Sudan GPdMuc; GP(S)dMuc

Binder | % inhibition of binding [%]
B1 | 22.9
B2 | 28.2
B3 | 24.9
B4 | 18.7
B5 | 13.3

target: T1, mucin domain-deleted Sudan GP (GPdMuc); assay: ELISA on coated GP

Binder | EC50 [µg/mL]
B1 | 0.195
B2 | 0.331
B3 | 0.499
B4 | 0.0404
B5 | 0.0266
B6 | 0.378
B7 | 0.23
B8 | 0.101

target: T1, mucin domain-deleted Sudan GP (GPdMuc); assay: BLI competition on Sudan GPdMuc (lower table); competitor 15H10

Binder | % inhibition of binding [%]
B1 | 29.6
B2 | 38.3
B3 | 27.8
B4 | 18.9
B5 | 15.7

target: T1, mucin domain-deleted Sudan GP (GPdMuc); assay: BLI competition on Sudan GPdMuc (lower table); competitor mAb166

Binder | % inhibition of binding [%]
B1 | 14.4
B2 | 10.1
B3 | 20.7
B4 | 16.2
B5 | 9.71

target: T1, mucin domain-deleted Sudan GP (GPdMuc); assay: BLI competition on Sudan GPdMuc (lower table); competitor 316L

Binder | % inhibition of binding [%]
B1 | 12.5
B2 | 10.3
B3 | 23.3
B4 | 17.9
B5 | 8.76

target: T1, mucin domain-deleted Sudan GP (GPdMuc); assay: BLI competition on Sudan GPdMuc (upper table); competitor 316L

Binder | % inhibition of binding [%]
B6 | 9.35
B7 | 16.2
B8 | 6.38

target: T1, mucin domain-deleted Sudan GP (GPdMuc); assay: BLI competition on Sudan GPdMuc (upper table); competitor 15H10

Binder | % inhibition of binding [%]
B6 | 17.4
B7 | 18.6
B8 | 15.8

target: T1, mucin domain-deleted Sudan GP (GPdMuc); assay: ELISA on coated GP; remark: another data set of the same source

Binder | EC50 [µg/mL]
B9 | 0.57
B10 | 0.01
B11 | 0.03
B12 | 0.02
B13 | 0.86

target: T1, mucin domain-deleted Sudan GP (GPdMuc); assay: BLI competition on Sudan GPdMuc (upper table); competitor 16F6

Binder | % inhibition of binding [%]
B6 | 90.8
B7 | 72.1
B8 | 76.2

target: T1, mucin domain-deleted Sudan GP (GPdMuc); assay: BLI competition on Sudan GPdMuc (upper table); competitor mAb166

Binder | % inhibition of binding [%]
B9 | 87.5
B10 | -2.64
B11 | 82
B12 | -6.27
B13 | 83.8

target: T1, mucin domain-deleted Sudan GP (GPdMuc); assay: BLI competition on Sudan GPdMuc (upper table); competitor 15H10; remark: another data set of the same source

Binder | % inhibition of binding [%]
B9 | 13.4
B10 | 6.61
B11 | 14.7
B12 | 4.35
B13 | 12.1

target: T1, mucin domain-deleted Sudan GP (GPdMuc); assay: BLI competition on Sudan GPdMuc (upper table); competitor 16F6; remark: another data set of the same source

Binder | % inhibition of binding [%]
B9 | 10.8
B10 | 17.9
B11 | 13.2
B12 | 3.74
B13 | 9.63

target: T1, mucin domain-deleted Sudan GP (GPdMuc); assay: BLI competition on Sudan GPdMuc (upper table); competitor 316L; remark: another data set of the same source

Binder | % inhibition of binding [%]
B9 | 10.3
B10 | 0.7
B11 | 8.13
B12 | 0.2
B13 | 39.4

target: T1, mucin domain-deleted Sudan GP (GPdMuc); assay: BLI competition on Sudan GPdMuc (upper table); competitor mAb166; remark: another data set of the same source

Binder | % inhibition of binding [%]
B6 | 5.74
B7 | 15.7
B8 | 8.08
